Paper PMC11381232, “Efficient expression and purification of rat CRP in Pichia pastoris” (Frontiers in Immunology, 2024)

B1: rat C-reactive protein purified from rat serum (natural protein, UniProt P48199 20-230, looked up)
chain: HEDMSKQAFVFPGVSATAYVSLEAESKKPLEAFTVCLYAHADVSRSFSIFSYATKTSFNEILLFWTRGQGFSIAVGGPEILFSASEIPEVPTHICATWESATGIVELWLDGKPRVRKSLQKGYIVGTNASIILGQEQDSYGGGFDANQSLVGDIGDVNMWDFVLSPEQINAVYVGRVFSPNVLNWRALKYETHGDVFIKPQLWPLTDCCES
notes: C-reactive protein, rat, endogenous protein from serum; Homopentamer by negative-stain EM and SEC; also called rCRP; rat CRP; source: purified from serum of turpentine-injected Wistar rats (p-Aminophenyl Phosphoryl Choline Agarose, DEAE, SEC)
B2: recombinant rat CRP with C-terminal 6×His tag, secreted from Pichia pastoris GS115 (natural protein, UniProt P48199 20-230, looked up)
chain: B1 chain
notes: C-reactive protein, rat, wild type; the reverse primer ends at ...DCCES followed by GA and six histidines; Secreted by the S. cerevisiae alpha-factor signal of pPIC9K; By the reverse primer a Gly-Ala stands between CRP and the His6 tag; also called rCRP; rCRP-6×His fusion protein; source: P. pastoris GS115, secreted into the culture medium, purified (Ni2+-NTA, p-Aminophenyl Phosphoryl Choline …)
B3: recombinant rat CRP with N-terminal Strep-tag II, secreted from E. coli BL21 (DE3) (natural protein, UniProt P48199 20-230, looked up)
chain: B1 chain
notes: C-reactive protein, rat, wild type, cDNA by NM_017096.3; so no native signal peptide; A bacterial signal peptide stood before the tag for secretion (text: alkaline phosphatase, ALP); also called rCRP; rCRPwt-pET42c

Assays:
[1] = target: the molecule itself; assay: negative-stain electron microscopy; CRP diluted to 0.15-0.3 mg/mL in 20 mM Tris pH 6.8, 150 mM NaCl, 2 mM CaCl2, 1-2 h at 18°C, 1% uranyl acetate; self-association, pentamer
[2] = target: the molecule itself; assay: SDS-PAGE and Western blot, non-reduced against reduced; yeast-secreted rCRP-6×His without or with 20 mM DTT, anti-His detection; disulfide-linked dimer of subunits

Protein	stoichiometry N [1]	stoichiometry N [2]
B1	5	–
B2	5	2
B3	5	–
